Literature values as cited in publication PMC9713128.

Target: HBcAg (Hepatitis B virus) (UniProt P03149)
Assay: solution binding assay

Sequence of UniProt P03149 (P03149 whole entry): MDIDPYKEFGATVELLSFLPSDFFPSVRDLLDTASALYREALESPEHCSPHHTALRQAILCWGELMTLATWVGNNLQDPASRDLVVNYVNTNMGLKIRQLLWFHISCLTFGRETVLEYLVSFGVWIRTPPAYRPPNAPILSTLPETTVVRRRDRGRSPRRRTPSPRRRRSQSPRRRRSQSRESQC

Row | Substance | Kd
1 | cyclic peptide C-WPFWGPW-C | < 25 nM
2 | cyclic peptide C-WSFFSNI-C | < 25 nM
